{
  "source": "paper PMC4898653",
  "about": "(2017)",
  "key": {"mesotrypsin": {"molecular_target": "T1, mesotrypsin (Homo sapiens, UniProt P35030)", "T1 chain": "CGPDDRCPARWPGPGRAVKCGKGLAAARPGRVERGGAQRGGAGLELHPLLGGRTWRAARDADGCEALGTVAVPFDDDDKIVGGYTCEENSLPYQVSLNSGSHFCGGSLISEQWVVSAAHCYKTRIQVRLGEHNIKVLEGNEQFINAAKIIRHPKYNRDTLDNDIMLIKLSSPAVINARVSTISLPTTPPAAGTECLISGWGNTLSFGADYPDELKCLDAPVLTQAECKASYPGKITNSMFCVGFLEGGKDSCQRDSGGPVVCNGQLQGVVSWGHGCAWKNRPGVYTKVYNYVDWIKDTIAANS", "assay": "competitive inhibition of Z-GPR-pNA cleavage"}, "factor XIa": {"molecular_target": "factor XIa (Homo sapiens, UniProt P03951)", "sequence (P03951 388-625)": "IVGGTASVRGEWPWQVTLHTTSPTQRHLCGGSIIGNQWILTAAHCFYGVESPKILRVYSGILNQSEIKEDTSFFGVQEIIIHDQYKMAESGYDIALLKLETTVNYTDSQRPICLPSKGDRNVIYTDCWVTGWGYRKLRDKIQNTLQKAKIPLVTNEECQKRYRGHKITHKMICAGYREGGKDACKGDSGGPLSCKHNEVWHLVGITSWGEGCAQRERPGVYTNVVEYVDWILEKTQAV", "assay": "enzyme inhibition"}, "anionic trypsin": {"molecular_target": "T2, anionic trypsin (Homo sapiens, UniProt P07478)", "T2 chain": "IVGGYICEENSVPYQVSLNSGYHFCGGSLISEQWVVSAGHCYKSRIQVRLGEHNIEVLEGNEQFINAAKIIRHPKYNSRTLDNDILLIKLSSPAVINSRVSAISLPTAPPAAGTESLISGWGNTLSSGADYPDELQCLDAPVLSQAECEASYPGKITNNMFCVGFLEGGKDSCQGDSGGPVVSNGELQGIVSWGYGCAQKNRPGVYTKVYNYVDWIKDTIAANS", "assay": "enzyme inhibition"}, "cationic trypsin": {"molecular_target": "cationic trypsin (Homo sapiens, UniProt P07477)", "assay": "enzyme inhibition"}, "kallikrein-6": {"molecular_target": "kallikrein-6 (Homo sapiens, UniProt Q92876)", "assay": "enzyme inhibition"}},
  "data": [
    {"binder": "APPI Kunitz domain (protein) VREVCSEQAETGPCRAMISRWYFDVTEGKCAPFFYGGCGGNRNNFDTEEYCMAVCGSA", "values": [
      {"measurement": "Ki", "setting": "mesotrypsin", "value": 131, "unit": "nM"},
      {"measurement": "Ki", "setting": "factor XIa", "value": 0.41, "unit": "nM"},
      {"measurement": "Ki", "setting": "anionic trypsin", "value": 0.00174, "unit": "nM"},
      {"measurement": "Ki", "setting": "cationic trypsin", "value": 0.00627, "unit": "nM"},
      {"measurement": "Ki", "setting": "kallikrein-6", "value": 2.23, "unit": "nM"}
    ]}
  ]
}
